Measured values from paper PMC4062475, “Cloning, Expression and Characterization of UDP-N-Acetylglucosamine Enolpyruvyl Transferase (MurA) from Wolbachia Endosymbiont of Human Lymphatic Filarial Parasite Brugia malayi” (PLoS ONE, 2014).

T1: wBm-MurA (Wolbachia endosymbiont of Brugia malayi, UniProt Q5GRP6)
T1 construct: full-length 1278 bp ORF in pET28a (BamHI/XhoI), His6-tagged, expressed in E. coli Rosetta(DE3)pLysS, Ni-NTA purified, ~51 kDa, tag removal not mentioned
T1 sequence (Q5GRP6 1-425): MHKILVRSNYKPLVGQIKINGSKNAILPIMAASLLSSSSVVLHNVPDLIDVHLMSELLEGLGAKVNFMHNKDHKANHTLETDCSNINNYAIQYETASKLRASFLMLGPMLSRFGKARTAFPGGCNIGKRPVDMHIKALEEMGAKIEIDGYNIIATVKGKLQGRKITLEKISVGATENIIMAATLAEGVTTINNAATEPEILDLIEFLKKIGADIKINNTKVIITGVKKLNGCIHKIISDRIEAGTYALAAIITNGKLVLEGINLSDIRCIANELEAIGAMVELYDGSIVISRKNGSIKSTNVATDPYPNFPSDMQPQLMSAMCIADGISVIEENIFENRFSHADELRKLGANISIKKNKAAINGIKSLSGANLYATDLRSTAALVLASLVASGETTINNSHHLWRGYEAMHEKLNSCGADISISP


What was measured:
wBm-MurA = biological target: T1, wBm-MurA; assay: malachite green phosphate release assay, […] min pre-incubation, […] h reaction; assay type: biochemical; conditions: 5 mM PEP, 0.6 mM UDPAG, pH 7.5, 37°C; competitive with PEP; covalent (as stated by authors)
[1] = substrate: C=C(OP(=O)(O)O)C(=O)O; assay: malachite green phosphate release assay, Michaelis-Menten non-linear fit; assay type: biochemical, Wolbachia endosymbiont of Brugia malayi; conditions: 5 mM UDPAG, 50 mM Tris-HCl pH 7.5, 10 mM KCl, 1 mM DTT, 10% glycerol, 37°C
[2] = substrate: CC(=O)N[C@H]1[C@@H](OP(=O)(O)OP(=O)(O)OC[C@H]2O[C@@H](n3ccc(=O)[nH]c3=O)[C@H](O)[C@@H]2O)O[C@H](CO)[C@@H](O)[C@@H]1O; assay: as above; assay type: biochemical, Wolbachia endosymbiont of Brugia malayi; conditions: 1 mM PEP, 50 mM Tris-HCl pH 7.5, 10 mM KCl, 1 mM DTT, 10% glycerol, 37°C

Molecule | fold decrease of activity at 50 mM (wBm-MurA) | Km [1] | Km [2]
C[C@@H]1O[C@@H]1P(=O)(O)O [fosfomycin] | ~ 2 fold | – | –
wBm-MurA (Wolbachia endosymbiont strain TRS of Brugia malayi) (protein, full-length 1278 bp ORF in pET28a (BamHI/XhoI), His6-tagged, expressed in E. coli Rosetta(DE3)pLysS, Ni-NTA purified, ~51 kDa, tag removal not mentioned) MHKILVRSNYKPLVGQIKINGSKNAILPIMAASLLSSSSVVLHNVPDLIDVHLMSELLEGLGAKVNFMHNKDHKANHTLETDCSNINNYAIQYETASKLRASFLMLGPMLSRFGKARTAFPGGCNIGKRPVDMHIKALEEMGAKIEIDGYNIIATVKGKLQGRKITLEKISVGATENIIMAATLAEGVTTINNAATEPEILDLIEFLKKIGADIKINNTKVIITGVKKLNGCIHKIISDRIEAGTYALAAIITNGKLVLEGINLSDIRCIANELEAIGAMVELYDGSIVISRKNGSIKSTNVATDPYPNFPSDMQPQLMSAMCIADGISVIEENIFENRFSHADELRKLGANISIKKNKAAINGIKSLSGANLYATDLRSTAALVLASLVASGETTINNSHHLWRGYEAMHEKLNSCGADISISP | – | 9.198 µM | 31.49 µM
